Test [1] addresses T1, recombinant protein of human IL-4Rα extracellular region (human, UniProt P24394 26-232).
T1 construct: range 26-232; Made in HEK293-6E cells, purified on nickel chelate; Used biotin-labeled on SA probes in the Fortebio assays and unlabeled as ELISA coat; also called hIL-4Rα; IL-4Rα recombinant protein
T1 sequence: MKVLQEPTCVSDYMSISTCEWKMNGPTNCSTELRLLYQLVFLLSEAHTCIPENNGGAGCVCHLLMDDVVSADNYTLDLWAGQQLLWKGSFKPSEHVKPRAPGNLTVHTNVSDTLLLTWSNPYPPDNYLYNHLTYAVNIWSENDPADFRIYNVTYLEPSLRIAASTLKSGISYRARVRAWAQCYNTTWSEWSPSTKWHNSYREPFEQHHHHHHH
The experiment in a line: ELISA on coated human hIL-4Rα (1 ug/ml), HRP-linked secondary antibody, OD450. Here is the method:
(§1) 1 ug/ml human hIL-4Rα, 10 ug/ml cynomolgus cynoIL-4Rα, 1 ug/ml mouse mIL-4Rα (Sino Biological, Cat: 80198-R08H) and 1 ug/ml rat-derived ratIL-4Rα (Sino Biological, Cat: 51180-MO8H) are diluted in 0.05 M carbonate coating buffer (pH 9.5) at 4° C. overnight. The solution in the wells is discarded the next day and the wells are washed 3 times with PBS washing buffer. Then PBS solution containing 2% BSA is added for blocking for 2 hours. After washing 3 times with PBS washing buffer, 100 ul of humanized candidate antibodies at different diluted concentrations is added, incubated for 1 h at room temperature, and then washed 3 times with PBS washing buffer; the HRP cross-linked antibody (Jackson Immuno Research) is diluted at 1:10000 with PBS washing buffer and incubated for 1 hour at room temperature. After washing 3 times with PBS washing buffer, 100 ul of TMB substrate solution is added to develop color, and after reaction at room temperature for 10 minutes; the reaction is stopped by the addition of 50 ul of 0.5 M concentrated sulfuric acid solution and the absorbance at 450 nm is read.
A general note: In an ELISA, binding on a coated surface is turned into a signal by an enzyme label.

Test [2] concerns the target T2, recombinant protein of cynomolgus IL-4Rα extracellular region (cynomolgus monkey).
T2 construct: also called cynoIL-4Rα; cynomolgus monkey IL-4Rα
T2 chain: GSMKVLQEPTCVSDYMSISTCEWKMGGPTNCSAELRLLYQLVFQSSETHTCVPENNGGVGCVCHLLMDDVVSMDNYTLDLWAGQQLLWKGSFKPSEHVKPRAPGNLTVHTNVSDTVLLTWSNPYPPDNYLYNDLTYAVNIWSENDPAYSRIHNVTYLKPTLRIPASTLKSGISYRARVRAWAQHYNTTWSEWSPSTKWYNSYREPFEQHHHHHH
Nature of the test: ELISA on coated cynomolgus cynoIL-4Rα (10 ug/ml), HRP-linked secondary antibody, OD450. As for the experimental part: as §1

In test [3] the target is T3, hIL-4Rα, full length, on stably transfected HEK293 cells (human, UniProt P24394 26-825).
T3 construct: whole, on cells; also called HEK293-hIL-4Rα
T3 sequence (looked up): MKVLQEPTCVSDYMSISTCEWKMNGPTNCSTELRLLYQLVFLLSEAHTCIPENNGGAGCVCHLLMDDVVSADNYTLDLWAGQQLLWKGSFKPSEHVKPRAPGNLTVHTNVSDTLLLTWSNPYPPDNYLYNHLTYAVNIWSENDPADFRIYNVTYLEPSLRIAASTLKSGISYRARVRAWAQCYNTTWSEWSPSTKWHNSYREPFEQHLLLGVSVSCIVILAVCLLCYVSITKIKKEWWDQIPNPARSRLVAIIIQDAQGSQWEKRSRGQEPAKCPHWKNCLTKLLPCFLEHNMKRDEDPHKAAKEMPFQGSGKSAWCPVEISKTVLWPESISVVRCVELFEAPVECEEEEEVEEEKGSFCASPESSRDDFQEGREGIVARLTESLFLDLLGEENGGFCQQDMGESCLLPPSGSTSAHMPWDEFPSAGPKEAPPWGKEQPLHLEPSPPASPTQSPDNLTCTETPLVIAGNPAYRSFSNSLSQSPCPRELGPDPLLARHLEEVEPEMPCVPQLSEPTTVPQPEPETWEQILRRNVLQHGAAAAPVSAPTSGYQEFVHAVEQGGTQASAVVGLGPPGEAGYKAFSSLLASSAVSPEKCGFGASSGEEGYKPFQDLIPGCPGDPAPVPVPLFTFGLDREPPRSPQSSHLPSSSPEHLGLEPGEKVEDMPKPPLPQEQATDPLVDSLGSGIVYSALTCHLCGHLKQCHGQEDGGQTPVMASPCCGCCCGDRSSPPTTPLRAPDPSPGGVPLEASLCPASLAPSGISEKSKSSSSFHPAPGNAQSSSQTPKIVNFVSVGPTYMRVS
Nature of the test: flow cytometry on 293-hIL-4Rα stably transfected cells, anti-human IgG Fab'2-AF647. As for the experimental part:
Every 1*10⁶ cells corresponds to 100 μl of 3% BSA/PBS solution, and the solution is blocked at 4° C. for 20 minutes. The prepared cells are added to a 96-well U-type plate at a volume of 100 μl/well, and centrifuged at 1100 rpm for 3 minutes, and the supernatant is discarded; and the primary antibody solution is added and incubated for 1 hour on ice. […] After incubation with the primary antibody solution, additional 0.5% BSA/PBS is added to a volume of […], centrifuged at 1100 rpm for 3 minutes, and the supernatant is discarded. 150 μl of 0.5% BSA/PBS is further added, centrifuged at 1100 rpm for 3 minutes, and the supernatant is discarded; before adding a secondary antibody anti-human IgG, Fab′2-AF647, same is diluted at 1:300 with 1% BSA/PBS. 40 μl of the secondary antibody solution is added to each well and incubated on ice for 45 minutes. After incubation with the secondary antibody solution, additional 0.5% BSA/PBS is added to a volume of 150 μl, centrifuged at 1100 rpm for 3 minutes, and the supernatant is discarded; 150 μl of 0.5% BSA/PBS is further added, centrifuged at 1100 rpm for 3 minutes, and the supernatant is discarded; 20-100 μl of PBS is added to resuspend the cells to 1*10⁶ cells per ml, and the obtained suspension is loaded onto a flow cytometer (I-Que screener). After opening the instrument and operating system according to the correct process, and setting the correct parameters, the cells are loaded to the test plate, and the fluorescent signal is detected, analysis is performed using Graph Pad Prism 5 software.

For test [4], the target named is T3, hIL-4Rα, full length, on stably …. Nature of the test: flow cytometry blocking assay on 293-hIL-4Rα stably transfected cells; blocked ligand: biotin-labeled IL-4 at 0.15 ug/ml, SA-PE. As for the experimental part:
Every 1*10⁶ cells corresponds to 100 μl of 3% BSA/PBS solution, and the solution is blocked at 4° C. for 20 minutes. The prepared cells are added to a 96-well U-type plate at a volume of 100 μl/well, and centrifuged at 1100 rpm for 3 minutes, and the supernatant is discarded; and the primary antibody solution is added and incubated for 1 hour on ice. Purified candidate antibodies are made into 5 concentration series with a starting concentration of 100 nM, and diluted according to a series of 1:5. After incubation with the primary antibody solution, additional 0.5% BSA/PBS is added to a volume of 150 μl, centrifuged at 1100 rpm for 3 minutes, and the supernatant is discarded. 150 μl of 0.5% BSA/PBS is further added, centrifuged at 1100 rpm for 3 minutes, and the supernatant is discarded; biotin-labeled IL-4 at a final concentration of 0.15 ug/ml is added and incubated on ice for 45 minutes. The secondary antibody SA-PE is diluted at 1:300 with 1% BSA/PBS; 40 μl of the secondary antibody solution is added to each well and incubated on ice for 45 minutes. After incubation with the secondary antibody solution, additional 0.5% BSA/PBS is added to a volume of 150 μl, centrifuged at 1100 rpm for 3 minutes, and the supernatant is discarded; 150 μl of 0.5% BSA/PBS is further added, centrifuged at 1100 rpm for 3 minutes, and the supernatant is discarded. 20-100 μl of PBS is added to resuspend the cells to 1*10⁶ cells per ml, and the obtained suspension is loaded onto a flow cytometer (I-Que screener). After opening the instrument and operating system according to the correct process, and setting the correct parameters, the cells are loaded to the test plate, and the fluorescent signal is detected, analysis is performed using Graph Pad Prism 5 software.
For orientation: A flow cytometer gives signals particle by particle.

B1: 1021/1013 (antibody, IgG1, V domains shown)
VH: EVQLVESGGGLVKPGGSLRLSCAASGFTFSRYAMSWVRQAPGKGLEWVSTISSGGSYTNYADSVKGRFTISRDNVKNTLYLQMNSLRAEDTAVYYCARATARATEFAYWGQGTLVTVSS
VL: DIQMTQSPSSLSASVGDRVTITCQASQDISNYLNWYQQKPGKAPKLLIYYTSRLHSGVPSRFSGSGSGTDYTLTISSLQPEDFATYFCQQGNTLPLTFGGGTKVEIK
notes: Humanized candidate antibody; also called 1021/1013-IgG; VH1021 with VL1013
As a reminder, the EC50 is the concentration that produces a half-maximal response. Broadly, the EC50 (read off the curve) is the concentration that produces a half-maximal response. Consider B1, for which the concentration for a half-maximal effect (EC50) is 0.064 nM in test [1] and 1.4 nM in test [2]. For the same molecule, in test [3], the “EC50 (read off the curve)” value is ~0.03 nM.

B2: 1026/1011 (antibody, V domains shown)
VH: QVQLVQSGAEVKKPGASVKMSCKASVYTFTGYNMHWVRQAPGQGLEWIGGLHPGNGDTSYNQKFKDRATLTADRSSNTAYMELSSLRSEDTAVYYCALTTAGRAWFAYWGQGTLVTVSS
VL: DIQMTQSPSSLSASVGDRVTITCQASQDISNYLNWYQQKPGKAPKLLIYYTSRLHSGVPSRFSGSGSGTDYTFTISSLQPEDIATYFCQQGNTLPWTFGGGTKVEIK
notes: Humanized candidate antibody; same remark on Fab/IgG wording as for 1021/1013; also called 1026/1011-IgG; VH1026 with VL1011
B2: the “IC50 (read off the curve)” value in test [4] is ~0.2 nM. For the same molecule, the EC50 in test [1] turned out to be 0.06 nM; in test [2], 89.2 nM. In addition, the “EC50 (read off the curve)” value in test [3] was ~0.07 nM.

B3: 1022/1013 (antibody, V domains shown)
VH: EVQLLESGGGLVQPGGSLRLSCAASGFTFSRYAMSWVRQAPGKGLEWVSTISSGGSYTNYADSVKGRFTISRDNVKNTLYLQMNSLRAEDTAVYYCARATARATEFAYWGQGTLVTVSS
VL: DIQMTQSPSSLSASVGDRVTITCQASQDISNYLNWYQQKPGKAPKLLIYYTSRLHSGVPSRFSGSGSGTDYTLTISSLQPEDFATYFCQQGNTLPLTFGGGTKVEIK
notes: Humanized candidate antibody; same remark on Fab/IgG wording as for 1021/1013; also called 1022/1013-IgG; VH1022 with VL1013
On to B3, for which the “IC50 (read off the curve)” value in test [4] was ~0.09 nM. In addition, the EC50 is 0.067 nM in test [1] and 1.16 nM in test [2].

B4: 1026/1012 (antibody, V domains shown)
VH: QVQLVQSGAEVKKPGASVKMSCKASVYTFTGYNMHWVRQAPGQGLEWIGGLHPGNGDTSYNQKFKDRATLTADRSSNTAYMELSSLRSEDTAVYYCALTTAGRAWFAYWGQGTLVTVSS
VL: DIQMTQSPSSLSASVGDRVTITCRASQDISNYLNWYQQKPGKAPKLLIYYTSRLHSGVPSRFSGSGSGTDYTLTISSLQPEDFATYFCQQGNTLPWTFGGGTKVEIK
notes: Humanized candidate antibody; same remark on Fab/IgG wording as for 1021/1013; also called 1026/1012-IgG; VH1026 with VL1012
Turning to B4, in test [4], the “IC50 (read off the curve)” value is ~0.2 nM. Moreover, the EC50 is 0.017 nM in test [1] and 13.2 nM in test [2]. Moreover, in test [3], the “EC50 (read off the curve)” value was ~0.06 nM.

The record behind these values is patent US20240092920A1 (KEYMED BIOSCIENCES, published 2024).
